Measured values: US20110020344A1 (US Dept. of Health and Human Services, published 2011)

T1: Soluble CD22 (PeproTech) (human, UniProt P20273 20-687, limits assumed)
T1 construct: Bought from PeproTech; also called sCD22; soluble CD22 purified from mammalian cells
T1 sequence: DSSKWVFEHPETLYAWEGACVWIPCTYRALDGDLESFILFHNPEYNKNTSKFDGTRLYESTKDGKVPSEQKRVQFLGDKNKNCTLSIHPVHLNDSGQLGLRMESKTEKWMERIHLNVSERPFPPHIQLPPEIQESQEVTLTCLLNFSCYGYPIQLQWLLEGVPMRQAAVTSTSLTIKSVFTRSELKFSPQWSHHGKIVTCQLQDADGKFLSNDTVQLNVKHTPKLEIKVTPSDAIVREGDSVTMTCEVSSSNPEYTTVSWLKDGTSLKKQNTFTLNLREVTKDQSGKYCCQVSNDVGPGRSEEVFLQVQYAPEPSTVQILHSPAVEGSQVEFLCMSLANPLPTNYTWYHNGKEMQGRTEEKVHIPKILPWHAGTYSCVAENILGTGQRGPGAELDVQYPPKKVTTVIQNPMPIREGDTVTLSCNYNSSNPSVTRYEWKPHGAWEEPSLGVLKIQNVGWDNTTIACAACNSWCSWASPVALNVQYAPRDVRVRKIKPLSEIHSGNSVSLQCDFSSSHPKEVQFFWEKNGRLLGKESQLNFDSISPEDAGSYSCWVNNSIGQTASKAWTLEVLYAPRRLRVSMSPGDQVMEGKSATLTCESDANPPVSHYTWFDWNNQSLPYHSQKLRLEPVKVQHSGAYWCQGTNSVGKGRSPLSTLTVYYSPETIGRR

T2: native, cell surface-associated CD22 on B lymphoma cell lines (Raji, BJAB, ST486) (human, UniProt P20273 20-847)
T2 construct: Endogenous CD22 of Raji, BJAB and ST486 cells; the cell line is named under assay; also called cell surface CD22; cell-associated CD22
T2 sequence: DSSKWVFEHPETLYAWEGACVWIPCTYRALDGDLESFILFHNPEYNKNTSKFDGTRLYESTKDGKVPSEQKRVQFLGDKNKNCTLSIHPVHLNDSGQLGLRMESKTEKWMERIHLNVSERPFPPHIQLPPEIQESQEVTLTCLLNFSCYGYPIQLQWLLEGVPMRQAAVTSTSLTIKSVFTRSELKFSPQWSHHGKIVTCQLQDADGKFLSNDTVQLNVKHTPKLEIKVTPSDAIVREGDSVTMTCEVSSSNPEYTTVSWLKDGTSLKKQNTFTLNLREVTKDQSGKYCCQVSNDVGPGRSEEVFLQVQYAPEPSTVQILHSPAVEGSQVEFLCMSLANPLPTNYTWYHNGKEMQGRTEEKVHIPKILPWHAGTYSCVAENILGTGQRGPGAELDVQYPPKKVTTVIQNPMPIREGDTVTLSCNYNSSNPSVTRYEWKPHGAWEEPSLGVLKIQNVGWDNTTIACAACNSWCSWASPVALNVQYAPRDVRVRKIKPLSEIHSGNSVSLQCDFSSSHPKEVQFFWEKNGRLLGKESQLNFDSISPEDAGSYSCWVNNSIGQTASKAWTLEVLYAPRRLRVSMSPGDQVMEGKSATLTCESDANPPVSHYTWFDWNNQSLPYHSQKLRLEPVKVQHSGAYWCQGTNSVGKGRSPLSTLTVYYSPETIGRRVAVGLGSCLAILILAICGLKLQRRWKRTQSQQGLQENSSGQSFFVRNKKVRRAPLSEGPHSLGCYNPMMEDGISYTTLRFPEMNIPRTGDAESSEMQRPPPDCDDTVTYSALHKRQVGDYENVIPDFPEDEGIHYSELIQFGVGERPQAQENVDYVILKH


Experiments:
Soluble CD22 (PeproTech) [1] = molecular target: T1, Soluble CD22 (PeproTech); test: ELISA, Fab on coated soluble CD22; reference Fab m971
Soluble CD22 (PeproTech) [2] = molecular target: T1, Soluble CD22 (PeproTech); test: ELISA, Fab on coated soluble CD22
Description: (§1) CD22 or CD22-Fc in PBS was coated to a 96-well plate overnight at 4° C. The plate was then washed with PBST (PBS+0.05% Tween) and blocked with PBST supplemented with 5% dry milk. Fab, scFv or IgG1 diluted in PBST+milk was added to the wells. The Fab and scFv binding was detected using the anti-His-IgG-HRP (Qiagen) and the IgG1 binding was detected using the anti-human Fc-IgG-HRP (Sigma, St. Louis, Mo.). After washing, ABTS substrate (Roche, Mannheim, Germany) was added to each well and OD₄₀₅ was recorded after five to ten minutes.

Soluble CD22 (PeproTech) [3] = molecular target: T1, Soluble CD22 (PeproTech); test: ELISA, IgG1 on coated soluble CD22
Description: as §1

[4] = molecular target: T2, native, cell surface-associated CD22 on …; test: flow cytometry titration on BJAB cells, apparent affinity from median fluorescence against concentration
Description: SupT1, Raji, BJAB, and ST486 cells in suspension culture were collected by centrifugation and then re-suspended in ice-cold RPMI+10% FBS medium at a density of 1×10⁶/ml. ScFv or IgG1 at different concentrations were added to the cells. Cells were left on ice for half an hour before being washed with the same complete RPMI medium. […] For IgG1, anti-human-IgG-FITC was added to the cells. The cells were then washed with RPMI medium twice and re-suspended in PBS and subjected to flow cytometry analysis using the FACSCalibur™ (Becton Dickinson, San Jose, Calif.)
The binding characteristics of the two IgGs to cell surface-associated CD22 was further analyzed by using increasing concentrations of both IgGs against BJAB cells in a flow cytometry assay.

| Binder | fold better binding than m971 (Soluble CD22 (PeproTech) [1]) | EC50 (Soluble CD22 (PeproTech) [2]) | EC50 (Soluble CD22 (PeproTech) [3]) | Kd [4] |
| --- | --- | --- | --- | --- |
| Fab m972 (Fab, V domains shown, Human Fab from a naive Fab phage library, expressed in E. coli HB2151; also called m972 Fab) VH: EVQLVQSGGGVVRPGGSLRLPCAASGFTFDDYGMSWVRQAPGKGLEWVSGINWNGGSTGYADSVKGRFTISRDNAKNSLYLQMNSLRAEDTALYHCARGGDDAFDIWGQGTMVTVSS VL: RIVMTQSPGTLSVSPGETATLSCRASQSFSNMLAWYQQKSGQPPRLLIYGVSTRAAGVPARFSGSGSGTEFTLTISNLQSEDFAVYYCQQYGDWPRYTFGQGTKVERKR | 10 fold | 2 nM |  |  |
| IgG1 m972 (antibody, V domains shown, IgG1 format made by moving the heavy and light chains of the clone into pDR12, expressed in 293 free style cells; also called m972 IgG1; not shown: rest of the human IgG1 heavy chain constant region from vector pDR12) VH: EVQLVQSGGGVVRPGGSLRLPCAASGFTFDDYGMSWVRQAPGKGLEWVSGINWNGGSTGYADSVKGRFTISRDNAKNSLYLQMNSLRAEDTALYHCARGGDDAFDIWGQGTMVTVSS VL: RIVMTQSPGTLSVSPGETATLSCRASQSFSNMLAWYQQKSGQPPRLLIYGVSTRAAGVPARFSGSGSGTEFTLTISNLQSEDFAVYYCQQYGDWPRYTFGQGTKVERKR |  |  | < 1 nM | ~15 nM |
